Reference: doi:10.1101/2023.03.13.532365

Biological target: *DsCDTCM, exported bifunctional cyclohexadienyl dehydratase-chorismate mutase fusion enzyme of Duganella sacchari (Duganella sacchari)
Test: crystal structure

stoichiometry N: 2
Substance: *DsCDTCM, exported bifunctional cyclohexadienyl dehydratase-chorismate mutase fusion enzyme of Duganella sacchari
